Reference: article doi:10.1101/2020.10.12.335539

How the values were obtained:
[1] = target: HCMV-IgG hyperimmunoglobulin preparation (Cytotect) (human); assay: flow cytometry on cells
[2] = target: humanized anti-hCD20 IgG1 (Rituximab) (human); assay: flow cytometry on cells

Row | Substance | percent reduction of FcγRIII binding to opsonized infected cells [1] [%] | percent reduction of FcγRIII binding to immune complexes [2] [%]
1 | HCMV gp68 on the surface of HCMV AD169/pBAC2-infected MRC-5 cells (from UniProt P16739 24-345) (natural protein) | 60 | 
2 | CD4-tailed gp68 (gp68-CD4) |  | 60
